Measured values taken from patent publication US20130263331A1.

Assays:
[1] = target: putative receptor(s) on brush border membrane vesicles (BBMV) prepared from midguts of third instars of the western corn rootworm (Diabrotica virgifera virgifera LeConte) (Diabrotica virgifera virgifera)
[2] = target: putative receptor(s) on brush border membrane vesicles (BBMV) prepared from midguts of third instars of the western corn rootworm (Diabrotica virgifera virgifera LeConte) (Diabrotica virgifera virgifera); assay: Homologous competition: unlabeled Cry3Aa (0-2500 nM) against 5 nM 125I-Cry3Aa on 0.1 mg/ml BBMV; value at about 2500 nM competitor

Substance | Kd [1] | binding site concentration Bmax (pmole/mg BBMV) [1] | percent of bound 125I-Cry3Aa displaced [2]
Cry3Aa trypsin core (from UniProt P0A379 159-644) | 24 nM | 22 | 60%
Full-length Cry6Aa1 (from UniProt Q45757 1-475) | 10.1 nM | 0.66 | 
